Data as given in patent US6451762B1 (Novo Nordisk A/S, priority 1997, dated 2002).
“Also recorded” adds a separate entry of the source. Marks after values point to notes of the source that are not given here.

What was measured:
[1] = Disappearance after subcutaneous injection in pigs; settings: pig, in vivo, sc
From the text: The gel filtration experiment using the conditions prescribed in this section is the direct physico-chemical method to reveal the potential aggregate formation property of an insulin derivative. Disappearance after subcutaneous injection in pigs reflects the combination of the albumin binding and polymer formation properties of the insulin derivative, besides a variety of biological factors.

[2] = Gel filtration method 2 on Superose 6HR (HPLC, 37° C.); format: physicochemical; settings: 140 mM NaCl, 10 mM tris, pH 7.4; for KAV (Superose 6HR) 2Zn^2+/6 ins: 2 Zn2+/6 ins; for KAV (Superose 6HR) 3Zn^2+/6 ins: 3 Zn2+/6 ins; for KAV (Superose 6HR): standards
Procedure: An alternative method to measure the capability of insulin derivatives of forming soluble high molecular weight aggregates was developed, suitable for HPLC equipment. The column dimensions, injection volume, and flow rate correspond to the first method, whereas the temperature is increased to 37° C. and the phosphate buffer is changed to trishydroxymethylaminomethan hydrochloride and additional sodium chloride. The aggregated state of insulin is defined to elute before the gel filtration standard aldolase like in the first method.

Albumin = Albumin (Homo sapiens, UniProt P02768)
[3] = Gel filtration on Sephacryl S-300 HR (aggregate formation, method 1); format: physicochemical; design: key to KAV: KAV=(VE-V0)/(VT-V0); fraction of available elution volume; settings: for KAV: Sephacryl S-300 HR; for formation of high molecular weight soluble aggregates: gel filtration at neutral pH, formulation used (Table 1)
Procedure: A pH neutral aqueous buffer system is used in the gel filtration and the insulin derivatives in the aggregated state are applied to the column in the form of a pharmaceutical preparation at a concentration of 600 nmol insulin/ml. […] However, when the actual state of aggregation in a pharmaceutical preparation is to be assessed, the medium of the preparation, exclusive the Zn^2+ which is insulin bound, is used as the eluent for the gel filtration. A column of 28×1 cm is eluted at a rate of 15 ml/h. Insulin derivatives were injected (200 μl) as a standard formulation comprising 600 μM derivative, 200 or 300 μM Zn^2+, 20 mM NaCl (or varied), 16 mM phenol, 16 mM m-cresol, 7 mM sodium phosphate at pH 7.5. Exclusion limit of Sephacryl® S-300 HR is stated by the manufacturer, Pharmacia, as a molecular weight of 1,500 kDa for globular proteins and 400 kDa for linear dextrans. In practice the elution of solutes of different size is characterised by the available volume as KAV values: KAV=(VE-V0)/(VT-V0) where VE is elution volume, V0 is void volume, e.g. elution volume of blue dextran, VT is total volume. Thus, the KAV value is independent of column dimension. […]

[4] = as above; format: physicochemical; design: key to KAV: KAV=(VE-V0)/(VT-V0); fraction of available elution volume; settings: Sephacryl S-300 HR, pH 7.4 eluent; Zinc free
[5] = pH 7.4 eluent, standards applied dissolved in water
[6] = eluent 125 mM NaCl, 20 mM sodium phosphate pH 7.4, sample 600 μM derivative, 200 μM Zn2+, 0-20 mM NaCl, phenol, m-cresol, pH 7.5

In the case of “Lys^B29(N^ε-dehydrolithocholoyl-) des(B30) HI”, the “Disappearance in pigs, T50%” value [1] is reported as over 34 h, the “KAV (Superose 6HR) 2Zn^2+/6 ins” value [2] is reported as 0.05 and the “KAV (Superose 6HR) 3Zn^2+/6 ins” value [2] is reported as 0.03. The “Albumin binding Kass” value (Albumin) was 0.26 10^5M^−1.

In the case of “Lys^B29(N^ε-lithocholoyl-α-amido-γ-Glu-) des(B30) HI”, the “Disappearance in pigs, T50%” value [1] is reported as over 34 h, the “KAV (Superose 6HR) 2Zn^2+/6 ins” value [2] is reported as −0.02 and the “KAV (Superose 6HR) 3Zn^2+/6 ins” value [2] is reported as 0.00. For the same molecule, the “Albumin binding Kass” value (Albumin) was 0.23 10^5M^−1.

With “B9Asp, B27Glu human insulin [reference compound]” the “Disappearance T50%” value [1] was “(1) h”, the “KAV (Superose 6HR)” value [2] was 0.73 and the “Albumin binding Kass” value (Albumin) was 0 (mol/l)^−1. The KAV [3, 5] was 0.71 and the KAV ([3]; pH 7.4 eluent, standards applied dissolved in water, listed as monomeric form of insulin) was “about 0.71”.

With “Lys^B29(N^εtetradecanoyl) des(B30) human insulin [Lys^B29(N^ε tetradecanoyl) des(B30), reference compound]” the “Disappearance T50%” value [1] was 14.3 h, the “KAV (Superose 6HR) 2Zn^2+/6 ins” value [2] was 0.58 and the “KAV (Superose 6HR) 3Zn^2+/6 ins” value [2] was 0.56. The KAV [3, 6] was 0.51 and the “formation of high molecular weight soluble aggregates” value (“formation” for short) [3] was “incapable of forming soluble high molecular weight aggregates”.

In the case of “Lys^B29(N^ε ω-carboxynonadecanoyl) des(B30)”, the “Disappearance T50%” value [1] is reported as 21.9 h, the “Albumin binding Kass” value (Albumin) is reported as 36 × 10^5 (mol/l)^−1 and the KAV [3, 6] is reported as 0.04.

For “Lys^B29(N^ε-lithocholoyl-β-Ala-) des(B30) HI”, the “KAV (Superose 6HR) 2Zn^2+/6 ins” value [2] was 0.00 and the “KAV (Superose 6HR) 3Zn^2+/6 ins” value [2] was 0.13.

With “Asp^A21 Lys^B29(N^ε-tetradecanoyl-) des(B30) HI” the “Disappearance in pigs, T50%” value [1] was 16.4 h, the “KAV (Superose 6HR) 2Zn^2+/6 ins” value [2] was 0.55 and the “KAV (Superose 6HR) 3Zn^2+/6 ins” value [2] was 0.46. For the same molecule, the “Albumin binding Kass” value (Albumin) was 0.97 10^5M^−1.

In the case of “Lys^B29(N^ε-lithocholoyl-γ-aminobutanoyl-) des(B30) HI”, the “KAV (Superose 6HR) 2Zn^2+/6 ins” value [2] is reported as 0.06 and the “KAV (Superose 6HR) 3Zn^2+/6 ins” value [2] is reported as 0.00.

For Lys^B29(N^ε-lithocholoyl-) des(B30) HI, the “Disappearance in pigs, T50%” value [1] was over 34 h, the “KAV (Superose 6HR) 2Zn^2+/6 ins” value [2] was −0.01 and the “KAV (Superose 6HR) 3Zn^2+/6 ins” value [2] was 0.23. The “Albumin binding Kass” value (Albumin) was 0.38 10^5M^−1.

For “Lys^B29(N^εlithocholyl-γ-Glu-) des(B30) human insulin [Lys^B29(N^ε lithocholyl-γ-Glu-) des(B30)]”, the “Disappearance T50%” value [1] was 22.8 h, the “Disappearance in pigs, T50%” value [1] was 22.8 h and the “KAV (Superose 6HR) 2Zn^2+/6 ins” value [2] was 0.00. For the same molecule, the “KAV (Superose 6HR) 3Zn^2+/6 ins” value [2] was −0.01, the KAV [3, 6] was 0.04* and the “formation” value [3] was “capable of forming soluble high molecular weight aggregates”. For the same molecule, the “formation” value ([3]; listed as Ly B^29(N^εlithocholyl-γ-Glu-) des(B30) human insulin) was “capable of forming high molecular weight soluble aggregates”.

In the case of “Aldolase: molecular size standard, Mw 158 kDa [reference compound]”, the “KAV (Superose 6HR)” value [2] is reported as 0.50 and the KAV [3, 5] is reported as about 0.32.

“Albumin: molecular size standard, Mw 67 kDa [reference compound]” showed a KAV [3, 5] of about 0.38.

For Lys^B29(N^ε-cholanoyl-) des(B30) HI, the “Disappearance in pigs, T50%” value [1] was 20.1 h, the “KAV (Superose 6HR) 2Zn^2+/6 ins” value [2] was 0.40 and the “KAV (Superose 6HR) 3Zn^2+/6 ins” value [2] was 0.17. The “Albumin binding Kass” value (Albumin) was 0.48 10^5M^−1.

With Lys^B29(N^ε decanoyl) the “Disappearance T50%” value [1] was 5.1 h, the “Albumin binding Kass” value (Albumin) was 0.06 × 10^5 (mol/l)^−1 and the KAV ([3]; eluent 125 mM NaCl, 20 mM sodium phosphate pH 7.4, sample 600 μM, 300 μM Zn2+) was 0.67.

In the case of “Lys^B29(N^ε-hexadecanoyl-α-amido-γ-Glu-) des(B30) HI”, the “Disappearance in pigs, T50%” value [1] is reported as 15.3 h, the “KAV (Superose 6HR) 2Zn^2+/6 ins” value [2] is reported as 0.38 and the “KAV (Superose 6HR) 3Zn^2+/6 ins” value [2] is reported as 0.41. For the same molecule, the “Albumin binding Kass” value (Albumin) was 0.56 10^5M^−1.

In the case of “Lys^B29(N^ε-lithocholoyl-β-Asp-) des(B30) HI”, the “KAV (Superose 6HR) 2Zn^2+/6 ins” value [2] is reported as 0.18 and the “KAV (Superose 6HR) 3Zn^2+/6 ins” value [2] is reported as 0.11.

With “Lys^B29(N^ε-deoxycholoyl-γ-Glu-) des(B30) HI” the “Disappearance in pigs, T50%” value [1] was 13.9 h, the “KAV (Superose 6HR) 2Zn^2+/6 ins” value [2] was 0.20 and the “KAV (Superose 6HR) 3Zn^2+/6 ins” value [2] was 0.07. For the same molecule, the “Albumin binding Kass” value (Albumin) was 0.03 10^5M^−1.

For “Thyroglobulin: molecular size standard, Mw 669 kDa [reference compound]”, the “KAV (Superose 6HR)” value [2] was 0.28 and the KAV [3, 5] was 0.08.

In the case of “Lys^B29(N^εlithocholyl-α-Glu-) des(B30) human insulin”, the “Disappearance T50%” value [1] is reported as 11.8 h, the “Albumin binding Kass” value (Albumin) is reported as 0.3 × 10^5 (mol/l)^−1 and the KAV [3, 6] is reported as 0.53. For the same molecule, the “formation” value [3] was “only the first forms aggregates; also recorded: incapable of forming soluble high molecular weight aggregates”.

With Lys^B29(N^ε lithocholyl the KAV [4] was 0.74.

With Ferritin [reference compound] the “KAV (Superose 6HR)” value [2] was 0.40 and the KAV [3, 5] was 0.19.

In the case of Lys^B29(N^ε cholesteryloxycarbonyl), the KAV [3, 6] is reported as 0.00.

B1: Ovalbumin: molecular size standard, Mw 43 kDa (protein, UniProt P01012 2-386, looked up)
Ovalbumin: GSIGAASMEFCFDVFKELKVHHANENIFYCPIAIMSALAMVYLGAKDSTRTQINKVVRFDKLPGFGDSIEAQCGTSVNVHSSLRDILNQITKPNDVYSFSLASRLYAEERYPILPEYLQCVKELYRGGLEPINFQTAADQARELINSWVESQTNGIIRNVLQPSSVDSQTAMVLVNAIVFKGLWEKAFKDEDTQAMPFRVTEQESKPVQMMYQIGLFRVASMASEKMKILELPFASGTMSMLVLLPDEVSGLEQLESIINFEKLTEWTSSNVMEERKIKVYLPRMKMEEKYNLTSVLMAMGITDVFSSSANLSGISSAESLKISQAVHAAHAEINEAGREVVGSAEAGVDAASVSEEFRADHPFLFCIKHIATNAVLFFGRCVSP
In the case of B1, the “KAV (Superose 6HR)” value [2] is reported as 0.58.

B2: Ribonuclease: molecular size standard, Mw 13.7 kDa (protein, UniProt P61823 27-150, looked up)
Ribonuclease pancreatic: KETAAAKFERQHMDSSTSAASSSNYCNQMMKSRNLTKDRCKPVNTFVHESLADVQAVCSQKNVACKNGQTNCYQSYSTMSITDCRETGSSKYPNCAYKTTQANKHIIVACEGNPYVPVHFDASV
In the case of B2, the “KAV (Superose 6HR)” value [2] is reported as 0.72 and the KAV [3, 5] is reported as 0.63.

B3: Catalase: molecular size standard, Mw 232 kDa (protein, UniProt P00432 2-527, looked up)
Catalase: ADNRDPASDQMKHWKEQRAAQKPDVLTTGGGNPVGDKLNSLTVGPRGPLLVQDVVFTDEMAHFDRERIPERVVHAKGAGAFGYFEVTHDITRYSKAKVFEHIGKRTPIAVRFSTVAGESGSADTVRDPRGFAVKFYTEDGNWDLVGNNTPIFFIRDALLFPSFIHSQKRNPQTHLKDPDMVWDFWSLRPESLHQVSFLFSDRGIPDGHRHMNGYGSHTFKLVNANGEAVYCKFHYKTDQGIKNLSVEDAARLAHEDPDYGLRDLFNAIATGNYPSWTLYIQVMTFSEAEIFPFNPFDLTKVWPHGDYPLIPVGKLVLNRNPVNYFAEVEQLAFDPSNMPPGIEPSPDKMLQGRLFAYPDTHRHRLGPNYLQIPVNCPYRARVANYQRDGPMCMMDNQGGAPNYYPNSFSAPEHQPSALEHRTHFSGDVQRFNSANDDNVTQVRTFYLKVLNEEQRKRLCENIAGHLKDAQLFIQKKAVKNFSDVHPEYGSRIQALLDKYNEEKPKNAVHTYVQHGSHLSAREKANL
In the case of B3, the KAV [3, 5] is reported as 0.30.
